Measured values as given in patent US20110182943A1, “METHODS OF IMMUNE OR HEMATOLOGICAL ENHANCEMENT, INHIBITING TUMOUR FORMATION OR GROWTH, AND TREATING OR PREVENTING CANCER, CANCER SYMPTOMS, OR THE SYMPTOMS OF CANCER TREATMENTS” (FONTERRA CO-OPERATIVE GROUP LIMITED, priority 2007, published 2011).

Key:
EL-4 tumour cells = experiment: EL-4 lymphoma tumour growth in mice fed experimental diets; assay type: in vivo, C57BL/6 mice
Description: Mice were challenged subcutaneously with 2×10^5 EL-4 tumour cells two weeks after being placed on the diets. Tumour size as measured by two perpendicular diameters (in centimetres) was monitored until day 91, or until tumours reached 1 cm in diameter. Each point represents the mean tumour size with 95% confidence intervals for either 6 mice, or the number of mice indicated.
Groups of six mice were fed a control AIN-93G diet, diets containing either 28 g Lf+ or 120 g of milk fat (AMF) per 2.4 Kg of diet, or a diet containing a combination of both Lf and milk fat. Day 0 refers to the day the mice were placed on their diets. After 2 weeks on the diets, 2×10^5 EL-4 cells were injected into the flanks of mice. Tumour size as measured by two perpendicular diameters (in centimetres) was monitored until day 56. Each point represents the mean tumour size with 95% confidence intervals for either 6 mice, or the number of mice indicated.
Mice were challenged subcutaneously with EL-4 tumour cells two weeks after being placed on the diets. Tumour size was again measured by two perpendicular diameters (in centimetres).

EL-4 target cells = experiment: Anti-tumour cytolytic activity of splenocytes from diet-fed mice; assay type: in vivo; settings: day 56
Protocol: Splenocytes were harvested following tumour cell injection on days specified. They were incubated at 37° C. with EL-4 target cells in graded E:T ratios in 96-well roundbottom plates. After a 4-hour incubation, 50 μl of supernatant was collected, and lysis was measured using the Cyto Tox 96 Assay Kit (Promega, Madison, Wis., USA). Background controls for non-specific target and effector cell lysis were included. After background subtraction, percentage of cell lysis was calculated using the formula: 100×(experimental spontaneous effector-spontaneous target/maximum target-spontaneous target).
Splenocytes were harvested from the mice described in Example 4 at day 56 and tested for their cytolytic activity against EL-4 target cells. […] The anti-tumour cytolytic activity was further increased by 86% (P<0.001) for mice fed the combination of Lf+ and milk fat compared to controls.

EL-4 tumours [1] = experiment: Tumour apoptosis (TUNEL / annexin-V-fluos) in EL-4 tumour sections; assay type: in vivo, mice; settings: day 56
Protocol: Tumours were excised and immediately frozen in dry ice, and stored at −70° C. for later in situ detection of apoptotic cells in tumours. Frozen serial sections of 6-μm thickness were fixed with paraformaldehyde solution (4% in PBS, pH 7.4), and permeabilized with a solution containing 0.1% Triton X-100 and 0.1% sodium citrate. They were incubated with 20 μl TUNEL reagent (In Situ apoptosis detection kit from Boehringer Mannheim, Germany) for 60 min at 37° C., and examined by fluorescence microscopy. Adjacent sections were counter-stained with haematoxylin to count the total number of cells, or the number of apoptotic cells in ten randomly selected fields (magnification of ×40). The apototic index (AI) was calculated as the number of apoptotic cells×100/total number of nucleated cells. For detection of apoptotic cells in vitro, the numbers of apoptotic and necrotic tumour cells were measured by staining with annexin-V-fluos, TUNEL, and trypan blue. For measurement of gut apoptosis, jejunal sections were stained by the TUNEL method using a DeadEnd™ Fluorometric TUNEL System (Promega, Madison, Wis., USA). Apoptotic cells in 10 randomly selected cypts were counted, and the data expressed as apoptotic bodies per crypt. […]

EL-4 tumours [2] = experiment: Tumour vascularity and blood flow (CD31, CD105, DiO7) in EL-4 tumours; assay type: in vivo, mice; settings: day 56
Protocol: To determine tumour vascularity, 10-μm frozen tumour sections were fixed with acetone, rinsed with PBS, blocked with 2% BSA for 2 hr, and incubated overnight with the anti-CD31 antibody MEC13.3, or an anti-CD105 mAb. They were subsequently incubated for 30 min with secondary antibodies using the VECTASTAIN Universal Quick kit (Vector Laboratories, Burlingame, Calif., USA); and developed with Sigma FAST DAB (3,3′-diaminobenzidine tetrahydrochloride) and CoCl2 enhancer tablets (Sigma), and counterstained with hematoxylin. Stained blood vessels were counted in five or six blindly chosen random fields (0.155 mm^2) at ×40 magnification, and the mean of the highest three counts was calculated. To visualize blood vessels open to flow, DiO7 (Molecular Probes, Eugene, Oreg.) was injected into the tail vein at a concentration of 1.0 mg/Kg one minute prior to collecting tissues, as described previously (Ding et al., 2001). The concentric circles method was also used to assess vascularity.
The effects of Lf+ and milk fat on tumour blood flow and vascularity were analyzed by staining of tumour sections prepared as described in Example 5 with anti-CD31 and anti-CD105 mAbs, and by perfusion of DiO7, and respectively. […] Stained blood vessels were counted from six mice in six blindly chosen random fields.

B1: Lf+: Iron-saturated bovine lactoferrin extract (100% saturated) prepared from natural bLf (protein, UniProt P24627 20-708, looked up)
Lactotransferrin: APRKNVRWCTISQPEWFKCRRWQWRMKKLGAPSITCVRRAFALECIRAIAEKKADAVTLDGGMVFEAGRDPYKLRPVAAEIYGTKESPQTHYYAVAVVKKGSNFQLDQLQGRKSCHTGLGRSAGWIIPMGILRPYLSWTESLEPLQGAVAKFFSASCVPCIDRQAYPNLCQLCKGEGENQCACSSREPYFGYSGAFKCLQDGAGDVAFVKETTVFENLPEKADRDQYELLCLNNSRAPVDAFKECHLAQVPSHAVVARSVDGKEDLIWKLLSKAQEKFGKNKSRSFQLFGSPPGQRDLLFKDSALGFLRIPSKVDSALYLGSRYLTTLKNLRETAEEVKARYTRVVWCAVGPEEQKKCQQWSQQSGQNVTCATASTTDDCIVLVLKGEADALNLDGGYIYTAGKCGLVPVLAENRKSSKHSSLDCVLRPTEGYLAVAVVKKANEGLTWNSLKDKKSCHTAVDRTAGWNIPMGLIVNQTGSCAFDEFFSQSCAPGADPKSRLCALCAGDDQGLDKCVPNSKEKYYGYTGAFRCLAEDVGDVAFVKNDTVWENTNGESTADWAKNLNREDFRLLCLDGTRKPVTEAQSCHLAVAPNHAVVSRSDRAAHVKQVLLHQQALFGKNGKNCPDKFCLFKSETKNLLFNDNTECLAKLGGRPTYEEYLGTEYVTAIANLKKCSTSPLLEACAFLTR
modifications: iron-saturated
notes: Iron-saturated bovine lactoferrin extract (100% saturated) prepared from natural bLf
mice that completely rejected the tumour challenge (EL-4 tumour cells; 28 g Lf+ and/or 120 g milk fat per 2.4 Kg of diet, groups of six mice, until day 56): One of 6 | mice in which appearance of tumours was delayed by one week (EL-4 tumour cells; 28 g Lf+ or 120 g milk fat per 2.4 Kg of diet, groups of six mice): 5 of 6 | effect on tumour growth / tumorigenesis in individual mice (EL-4 tumour cells; groups of five mice, per 2.4 Kg of diet: 28 g Lf+, 120 g Phospholac 600, 1.2 g sphingomyelin): growth of two tumours being delayed by two weeks, and one by at least one week | increase in anti-tumour cytolytic activity of splenocytes compared with control diet (EL-4 target cells): 66% | increase in tumour apoptosis compared to control diet (EL-4 tumours [1]): 68% | reduction in number of CD31+ vessels in tumours compared to control diet (EL-4 tumours [2]): 84% | reduction in tumour blood flow compared to control diet (EL-4 tumours [2]): 84%
